Experimental data: PMC11585616 (2024)
Where two headings read alike, the source gives them in different places.

Assays:
Test in all cases: ITC
HiSiaP = HiSiaP (Haemophilus influenzae, UniProt P44542 24-329)
VcSiaP [1] = target: T1, VcSiaP (Vibrio cholerae, UniProt Q9KR64 23-321)
VcSiaP [2] = target: T1, VcSiaP; remark: listed apart in the source

T1 sequence (Q9KR64 23-321): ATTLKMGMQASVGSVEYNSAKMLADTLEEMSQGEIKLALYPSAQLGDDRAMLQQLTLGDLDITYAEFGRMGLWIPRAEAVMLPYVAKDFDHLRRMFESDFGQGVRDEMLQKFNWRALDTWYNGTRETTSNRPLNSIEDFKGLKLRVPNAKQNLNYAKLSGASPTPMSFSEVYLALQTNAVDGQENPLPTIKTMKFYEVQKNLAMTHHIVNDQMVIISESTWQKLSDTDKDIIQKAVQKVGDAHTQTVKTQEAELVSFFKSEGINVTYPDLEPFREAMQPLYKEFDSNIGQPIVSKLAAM
Sequence of HiSiaP (P44542 24-329): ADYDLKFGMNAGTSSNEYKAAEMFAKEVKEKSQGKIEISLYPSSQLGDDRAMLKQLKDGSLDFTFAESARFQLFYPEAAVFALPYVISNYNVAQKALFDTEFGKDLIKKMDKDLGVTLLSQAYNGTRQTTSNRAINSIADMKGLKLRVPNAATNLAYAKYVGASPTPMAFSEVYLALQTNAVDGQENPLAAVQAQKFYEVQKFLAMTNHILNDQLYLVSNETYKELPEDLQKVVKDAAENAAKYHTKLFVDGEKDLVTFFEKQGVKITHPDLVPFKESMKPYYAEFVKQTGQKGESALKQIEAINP

B1: VHHVcP #2 (VHH)
VHH: QVQLVESGGRLVQTGGSLRLSCAASGDTFSNYVMGWFRQAPGKEREFVAAISWTGANSYYADSVAGRFTISRDNAKNTVALQMNSLKPEDTAIYYCAADHFHVTHRKYDYWGQGTQVTVSS
- Kd (HiSiaP): 10700 nM
- Kd (VcSiaP [1]): 1.97 nM
- Kd (VcSiaP [2]): 5.61 nM
